Test results published in patent publication US20180312877A1, “METHOD FOR ISOMERIZING DOUBLE BONDS” (Research Foundation of the City University of New York, priority 2015, published 2018).

Assay: Z-ISO in vitro enzyme assay with substrate-containing liposomes
Format: biochemical, Zea mays
Protocol: Z-ISO in vitro enzyme assay. Preparation of substrate-containing liposomes. To produce the substrate, 9,15,9′-tri-cis-ζ-carotene (tri) from E. coli BL21(DE3) cultures, 400 ml of Luria-Bertani medium (I % tryptone, 0.5% yeast extract and 1% NaCl) containing chloramphenicol (34 μg per ml (Sigma-Aldrich)) was inoculated with 8 ml of overnight culture containing pACCRT-EBP (no. 150). Cultures were grown in the dark at 37° C., with shaking at 160 r.p.m. for 8 h before induction with 10 mM IPTG. Cultures were further incubated at 28° C., with shaking at 100 r.p.m. for 40 h and for an additional 2 d without shaking. Cells were centrifuged at 2,600 g, and pellets were resuspended in a total of 40 ml of methanol, distributed in four conical tubes with equal volumes of extract and then sonicated twice on ice (30 s each, at 60% power) with a Vibra Cell VC600 sonicator equipped with a tapered 3-mm microtip (Sonics & Materials). Extracts were centrifuged at 2,600 g for 10 min, and supernatants were transferred to 15-ml conical tubes and evaporated under nitrogen gas in the dark. Dried samples were resolubilized in 300 μl of methanol, transferred to 1.5-ml microfuge tubes, frozen at −80° C. for 1 h and centrifuged at 16,000 g at 4° C. Extractions were then combined, and 1 ml was used to prepare liposomes. Cells also accumulate […] (di), and therefore enzymatic conversion is measured as the ratio of di to tri isomers. For preparation of liposomes, 1 ml of substrate extract (58 μM, estimated by spectroscopy, with the molar extinction coefficient for ζ-carotene, ε400, equal to 138,000) was mixed with 35 μl of soybean L-α-phosphatidylcholine (Sigma-Aldrich, 99% pure) (20 mg per ml in methanol). The mixture was dried under N2, and this was followed by addition of 800 μl sonication buffer (25 mM HEPES, pH 7.8, 100 mM NaCl and 10% glycerol) and sonication on ice with a Vibra Cell VC600 sonicator equipped with a 3-mm tapered microtip (Sonics & Materials) for 1 min, at intervals of 10 s at 20% power.
In vitro reactions. […]

B1: Z-ISO: 15-cis-ζ-carotene isomerase from Zea mays (SEQ ID NO: 12), heme b enzyme, purified as TEV-cleavable MBP fusion (protein)
chain: MASQLRLHLAATPPLLPHRRPHLPRPLCPTLNPIRAPLPPLSRVLSHARPARAVGGGIEPKEGVVAEGDESGGGPVLVGEDSAAFELKDQSVASWAYFAGILGAVLVALNVLWIDPSTGVGTKFLDAVASVSDSHEVVMLLLTIIFAVVHSGMASLRESGEKIVGERVYRVLFAGISLPLAVTTIVYFINHRYDGTQLWQVQGITGIHELLWFSSFISFFFLYPSTFNLLEVAAVDKPKLHMWETGIMRITRHPQMVGQVIWCLAHTLWIGNSVAVAASVGLISHHLFGAWNGDRRLLSRYGEAFEVLKKRTSVMPFAAIIDGRQKLPKDYHKEFFRLPYVAITMLTLGAYFAHPLMQASSYQLPW
modifications: MBP fusion, TEV-cleavable; Zea mays
Z-ISO pretreated with dithionite, 10 mM final (reducing conditions)
  conversion of substrate to product: Conversion of the substrate to product occurred
as-purified enzyme (considered to be oxidized)
  conversion of substrate to product: not functional
heat-denatured Z-ISO
  conversion of substrate to product: not functional
